Test results reported in patent CN106916225A (UNIV JINAN, dated 2017).

T1: 人N端脑钠肽前体 (N-terminal pro-brain natriuretic peptide, NT-proBNP) (human, UniProt P16860 27-102)
T1 construct: domain: N端脑钠肽前体 (NT-proBNP), 76个氨基酸残基; Bought recombinant protein; also called hNT-proBNP; 人N末端B型脑钠肽前体
T1 sequence (looked up): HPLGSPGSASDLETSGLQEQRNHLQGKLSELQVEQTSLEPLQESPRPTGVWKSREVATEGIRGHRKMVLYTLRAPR


Columns and labels:
[1] = biological target: T1, 人N端脑钠肽前体 (N-terminal pro-brain …); test: non-competitive enzyme immunoassay (ELISA), NT-proBNP coated at 400, 100, 25 ng/mL, Ka=(n-1)/2(n[Ab']t-[Ab]t)
[2] = biological target: T1, 人N端脑钠肽前体 (N-terminal pro-brain …); test: indirect ELISA, NT-proBNP coated at 400 ng/ml, serially diluted purified ascites antibody

Binder | Ka [1] | 效价 (antibody dilution at OD450 about 1.0) [2]
单克隆抗体Ab1 (抗人N端脑钠肽前体单克隆抗体, 杂交瘤细胞株3A2分泌) (antibody) chain 1: VKLQESGPELVKPGASQKISCKTSGYTFTVYTLHWVKQSHGKSLEWIGAINPKTGSIRNNQKFRDKAILTIDRSSNTAYMDLRSLTSDDSAVYFCARNGGHDVYFFDYWGQGTTVTVSS chain 2: DIVLTQSPASLAVSLGQRATISYRASKSVSTSGYSYMHWNQQKPGQPPRLLIYLVSNLESGVPARFSGSGSGTDFTLNIHPVEEEDAATYYCQHIR | 1e+10 M⁻¹ | > 1e+06 dilution fold (1:x)
单克隆抗体Ab3 (抗人N端脑钠肽前体单克隆抗体) (antibody, V domains shown) VH: QVQLQQPGAELVKPGASVKMSCQASGFTFTNYIIHWVKQTPGQGLEWIGAIYPGNGDTSYNQKFRGKATLTADKSSNTAYMQLSSLTSEDSAVYYCAGEDNYGNSYWYFDVWGAGTTVTVSS VL: DIVMTQTPLSLPVSLGDQASISCRSSQSIVHSTGNTYLEWYLQKPGQSPKLLIYKVSNRLSGVPDRFSGSGSGTDFTLKISRVEAEDLGVYYCFQGSQVSLTFGAGTKLELKR | – | > 1e+06 dilution fold (1:x)
